How the values were obtained:
[1] = molecular target: I58Q/I62Q serum resistance associated protein (SRA), His-tagged (Trypanosoma brucei rhodesiense); assay: pull-down of in vitro synthesized [35S]-apoL-I with mutant His-SRA on Ni-NTA beads, scintillation counting
[2] = molecular target: N-terminal His-tagged version of serum resistance associated protein (SRA) (aa 1-251), wild type (Trypanosoma brucei rhodesiense); assay: pull-down of in vitro synthesized [35S]-apoL-I mutant with His-SRA on Ni-NTA beads, scintillation counting

| Substance | binding (%) [1] [%] | binding (%) [2] [%] |
| --- | --- | --- |
| in vitro synthesized [35S]-apoL-I, wild type, with C-terminal V5 tag (from UniProt O14791 16-398) | 50 |  |
| [35S]-apoL-I truncated version ending at aa 355, with C-terminal V5 tag (from UniProt O14791 28-355) |  | 24 |
| [35S]-apoL-I truncated version ending at aa 342, with C-terminal V5 tag (from UniProt O14791 28-342) |  | 5 |
| [35S]-apoL-I L345Y/L352A/Y354L point mutant, with C-terminal V5 tag (from UniProt O14791 16-398) |  | 67 |

Source: patent US7585511
